Measured values taken from paper PMC10786891, “Massively parallel profiling of RNA-targeting CRISPR-Cas13d”.
Where a chain is given by its changes, count along the chain named. Numbers in names are those of the source.

T1: EsCas13d, nuclease-dead (Eubacterium siraeum, UniProt B0MS50, R295A;H300A;R849A;H854A)
T1 sequence: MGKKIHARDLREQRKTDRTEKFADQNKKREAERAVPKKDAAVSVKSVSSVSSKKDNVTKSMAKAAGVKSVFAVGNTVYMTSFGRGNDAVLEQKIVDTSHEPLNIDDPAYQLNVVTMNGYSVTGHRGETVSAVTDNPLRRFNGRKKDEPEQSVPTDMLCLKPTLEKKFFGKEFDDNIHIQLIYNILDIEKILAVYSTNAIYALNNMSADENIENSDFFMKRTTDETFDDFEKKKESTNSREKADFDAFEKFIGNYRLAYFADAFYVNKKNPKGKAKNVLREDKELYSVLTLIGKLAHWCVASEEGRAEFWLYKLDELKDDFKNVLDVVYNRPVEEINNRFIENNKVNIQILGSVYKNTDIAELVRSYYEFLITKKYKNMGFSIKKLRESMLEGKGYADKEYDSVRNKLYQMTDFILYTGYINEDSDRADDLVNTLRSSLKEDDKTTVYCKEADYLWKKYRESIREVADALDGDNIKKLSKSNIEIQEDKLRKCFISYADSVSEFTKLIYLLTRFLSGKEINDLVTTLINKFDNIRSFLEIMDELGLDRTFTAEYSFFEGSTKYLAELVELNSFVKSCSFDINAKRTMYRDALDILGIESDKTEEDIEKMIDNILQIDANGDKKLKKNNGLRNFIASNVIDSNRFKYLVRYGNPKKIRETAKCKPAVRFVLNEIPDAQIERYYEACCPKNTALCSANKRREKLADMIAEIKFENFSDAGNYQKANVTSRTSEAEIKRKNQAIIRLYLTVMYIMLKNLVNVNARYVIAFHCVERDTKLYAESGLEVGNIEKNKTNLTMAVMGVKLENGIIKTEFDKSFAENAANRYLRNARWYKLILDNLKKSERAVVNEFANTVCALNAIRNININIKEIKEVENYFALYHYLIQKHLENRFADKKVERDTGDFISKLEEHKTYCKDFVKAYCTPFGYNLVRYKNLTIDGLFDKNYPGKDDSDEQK

B1: target 1 MT 5'PFS UGC 3'PFS UAA (mixed)
RNA 1: CACCCGUGCAAAAAUGCAGGGGUCUAAAACUGAGCGGAUAACCUCUCUAUGG
RNA 2: GGGAAUGGAUCCACAUCUACGAAUUCUGCCCAUAGAGAGGUUAUCCGCUCAUAAAGAUCGGAAGAGCACACGU
B2: target 1 MT 5'PFS ACG 3'PFS CGA (mixed)
RNA 1: B1 RNA 1
RNA 2: B1 RNA 2 with U27A, G28C, C29G, U52C, A53G
B3: target 1 MT 5'PFS CUG 3'PFS CGU (mixed)
RNA 1: B1 RNA 1
RNA 2: B1 RNA 2 with U27C, G28U, C29G, U52C, A53G, A54U
B4: target 1 G13A,C22A (mixed)
RNA 1: B1 RNA 1
RNA 2: B1 RNA 2 with U27G, G28U, C29A, C30A, G39A, U52C, A53C, A54G
B5: target 1 MT 5'PFS GGG 3'PFS CUC (mixed)
RNA 1: B1 RNA 1
RNA 2: B1 RNA 2 with U27G, C29G, U52C, A53U, A54C
B6: target 1 MT 5'PFS CCU 3'PFS CCG (mixed)
RNA 1: B1 RNA 1
RNA 2: B1 RNA 2 with U27C, G28C, C29U, U52C, A53C, A54G
B7: target 1 complement block 10-13 (mixed)
RNA 1: B1 RNA 1
RNA 2: GGGAAUGGAUCCACAUCUACGAAUUCGUACCAUAGAGACCAAAUCCGCUCACCGAGAUCGGAAGAGCACACGU
B8: target 1 MT 5'PFS CUG 3'PFS AAA (mixed)
RNA 1: B1 RNA 1
RNA 2: B1 RNA 2 with U27C, G28U, C29G, U52A
B9: target 1 MT 5'PFS UCG 3'PFS CUC (mixed)
RNA 1: B1 RNA 1
RNA 2: B1 RNA 2 with G28C, C29G, U52C, A53U, A54C
B10: target 1 MT 5'PFS UCG 3'PFS CUG (mixed)
RNA 1: B1 RNA 1
RNA 2: B1 RNA 2 with G28C, C29G, U52C, A53U, A54G
B11: target 1 MT 5'PFS GCG 3'PFS AUA (mixed)
RNA 1: B1 RNA 1
RNA 2: B1 RNA 2 with U27G, G28C, C29G, U52A, A53U
B12: target 1 MT 5'PFS UAU 3'PFS AUC (mixed)
RNA 1: B1 RNA 1
RNA 2: B1 RNA 2 with G28A, C29U, U52A, A53U, A54C
B13: target 1 MT 5'PFS AAG 3'PFS UAU (mixed)
RNA 1: B1 RNA 1
RNA 2: B1 RNA 2 with U27A, G28A, C29G, A54U
B14: target 1 MT 5'PFS UCG 3'PFS UUA (mixed)
RNA 1: B1 RNA 1
RNA 2: B1 RNA 2 with G28C, C29G, A53U
B15: target 1 MT 5'PFS GCG 3'PFS AUG (mixed)
RNA 1: B1 RNA 1
RNA 2: B1 RNA 2 with U27G, G28C, C29G, U52A, A53U, A54G
B16: target 1 MT 5'PFS UCG 3'PFS UUC (mixed)
RNA 1: B1 RNA 1
RNA 2: B1 RNA 2 with G28C, C29G, A53U, A54C
B17: target 1 MT 5'PFS GUC 3'PFS AAU (mixed)
RNA 1: B1 RNA 1
RNA 2: B1 RNA 2 with U27G, G28U, U52A, A54U
B18: target 1 MT 5'PFS UUU 3'PFS UCC (mixed)
RNA 1: B1 RNA 1
RNA 2: B1 RNA 2 with G28U, C29U, A53C, A54C
B19: target 1 MT 5'PFS AAC 3'PFS CGG (mixed)
RNA 1: B1 RNA 1
RNA 2: B1 RNA 2 with U27A, G28A, U52C, A53G, A54G
B20: target 1 MT 5'PFS CAC 3'PFS AUA (mixed)
RNA 1: B1 RNA 1
RNA 2: B1 RNA 2 with U27C, G28A, U52A, A53U
B21: target 1 MT 5'PFS CAC 3'PFS AUC (mixed)
RNA 1: B1 RNA 1
RNA 2: B1 RNA 2 with U27C, G28A, U52A, A53U, A54C
B22: target 1 MT 5'PFS UCG 3'PFS UUG (mixed)
RNA 1: B1 RNA 1
RNA 2: B1 RNA 2 with G28C, C29G, A53U, A54G
B23: target 1 insC 3' of 19,insA 3' of 12 (mixed)
RNA 1: B1 RNA 1
RNA 2: GGGAAUGGAUCCACAUCUACGAAUUCGUACCAUCAGAGAGGAUUAUCCGCUCACCGAGAUCGGAAGAGCACACGU
B24: target 1 MT 5'PFS GGG 3'PFS CUG (mixed)
RNA 1: B1 RNA 1
RNA 2: B1 RNA 2 with U27G, C29G, U52C, A53U, A54G
B25: target 1 MT 5'PFS ACU 3'PFS UAU (mixed)
RNA 1: B1 RNA 1
RNA 2: B1 RNA 2 with U27A, G28C, C29U, A54U
B26: target 1 MT 5'PFS GGA 3'PFS ACU (mixed)
RNA 1: B1 RNA 1
RNA 2: B1 RNA 2 with U27G, C29A, U52A, A53C, A54U
B27: target 1 MT 5'PFS AGG 3'PFS CGA (mixed)
RNA 1: B1 RNA 1
RNA 2: B1 RNA 2 with U27A, C29G, U52C, A53G
B28: target 1 MT 5'PFS GGG 3'PFS CUU (mixed)
RNA 1: B1 RNA 1
RNA 2: B1 RNA 2 with U27G, C29G, U52C, A53U, A54U
B29: target 1 MT 5'PFS UAU 3'PFS AUA (mixed)
RNA 1: B1 RNA 1
RNA 2: B1 RNA 2 with G28A, C29U, U52A, A53U
B30: target 1 MT 5'PFS GUC 3'PFS AAC (mixed)
RNA 1: B1 RNA 1
RNA 2: B1 RNA 2 with U27G, G28U, U52A, A54C
B31: target 1 MT 5'PFS GAG 3'PFS CCG (mixed)
RNA 1: B1 RNA 1
RNA 2: B7 RNA 2 with U28A, A29G, C39G, C40G, A41U, A42U
B32: target 1 MT 5'PFS GGG 3'PFS CUA (mixed)
RNA 1: B1 RNA 1
RNA 2: B1 RNA 2 with U27G, C29G, U52C, A53U
B33: target 1 MT 5'PFS GCG 3'PFS AUC (mixed)
RNA 1: B1 RNA 1
RNA 2: B1 RNA 2 with U27G, G28C, C29G, U52A, A53U, A54C
B34: target 1 MT 5'PFS CUG 3'PFS CGG (mixed)
RNA 1: B1 RNA 1
RNA 2: B1 RNA 2 with U27C, G28U, C29G, U52C, A53G, A54G

These binders were tested against T1, EsCas13d, nuclease-dead (assay: crRNA (strand 1, pre-loaded); Mg2+; 40 mM Tris-HCl pH 7.5, 150 mM NaCl, 6 mM MgCl2, 1 mM DTT, 0.1% Tween-20, 0.2 mg/ml BSA; 25 C; 10 min per concentration, then washed). Conditions: tags: His6-TwinStrep-SUMO cleaved; N-terminal SNAP kept (SNAP-Surface 488); label: 3' end held by stalled T7 RNA polymerase.
B1 was tested, and the Kd was 16 ± 4.5 nM.
B2 showed a Kd of 28 ± 12 nM.
In the case of B3, the Kd is reported as 21 ± 6.5 nM.
B4 was tested, and the Kd was 9.6 ± 0.5 nM.
Work on B5 yielded a Kd of 23 ± 7 nM.
For B6, the Kd was 16.5 ± 7.5 nM.
For B7, the Kd was 99 ± 30 nM.
B8 gave a Kd of 10.6 ± 2.7 nM.
B9 showed a Kd of 45.5 ± 20 nM.
B10 showed a Kd of 57.5 ± 23 nM.
B11 was tested, and the Kd was 16.2 ± 2.5 nM.
Binder B12 has a Kd of roughly 65 nM.
B13 showed a Kd of 18.5 ± 5 nM.
B14 gave a Kd of 31.5 ± 7.5 nM.
In the case of B15, the Kd is reported as 30.5 ± 8 nM.
With B16 the Kd was 37 ± 12.5 nM.
Binder B17 has a Kd of 25.5 ± 6.5 nM.
Binder B18 has a Kd of 90 ± 45 nM.
B19 gave a Kd of 31 ± 7 nM.
Binder B20 has a Kd of roughly 17 nM.
B21 showed a Kd of roughly 28.5 nM.
B22 gave a Kd of 43 ± 8 nM.
Binder B23 has a Kd of 69 ± 9 nM.
Work on B24 yielded a Kd of 14.7 ± 2.1 nM.
In the case of B25, the Kd is reported as roughly 72.5 nM.
For B26, the Kd was 15.8 ± 2.95 nM.
In the case of B27, the Kd is reported as roughly 73 nM.
Binder B28 has a Kd of 24.5 ± 9 nM.
For B29, the Kd was 43 ± 15.5 nM.
In the case of B30, the Kd is reported as 36.5 ± 17.5 nM.
Binder B31 has a Kd of roughly 25 nM.
For B32, the Kd was 25.1 ± 5.2 nM.
Work on B33 yielded a Kd of 22 ± 6 nM.
Binder B34 has a Kd of 18.6 ± 3.55 nM.
